B1: pre-mRNA splicing regulator USH1G (Homo sapiens), Q495M9 (parent)
chain: MNDQYHRAARDGYLELLKEATRKELNAPDEDGMTPTLWAAYHGNLESLRLIVSRGGDPDKCDIWGNTPLHLAASNGHLHCLSFLVSFGANIWCLDNDYHTPLDMAAMKGHMECVRYLDSIAAKQSSLNPKLVGKLKDKAFREAERRIRECAKLQRRHHERMERRYRRELAERSDTLSFSSLTSSTLSRRLQHLALGSHLPYSQATLHGTARGKTKMQKKLERRKQGGEGTFKVSEDGRKSARSLSGLQLGSDVMFVRQGTYANPKEWGRAPLRDMFLSDEDSVSRATLAAEPAHSEVSTDSGHDSLFTRPGLGTMVFRRNYLSSGLHGLGREDGGLDGVGAPRGRLQSSPSLDDDSLGSANSLQDRSCGEELPWDELDLGLDEDLEPETSPLETFLASLHMEDFAALLRQEKIDLEALMLCSDLDLRSISVPLGPRKKILGAVRRRRQAMERPPALEDTEL
partner: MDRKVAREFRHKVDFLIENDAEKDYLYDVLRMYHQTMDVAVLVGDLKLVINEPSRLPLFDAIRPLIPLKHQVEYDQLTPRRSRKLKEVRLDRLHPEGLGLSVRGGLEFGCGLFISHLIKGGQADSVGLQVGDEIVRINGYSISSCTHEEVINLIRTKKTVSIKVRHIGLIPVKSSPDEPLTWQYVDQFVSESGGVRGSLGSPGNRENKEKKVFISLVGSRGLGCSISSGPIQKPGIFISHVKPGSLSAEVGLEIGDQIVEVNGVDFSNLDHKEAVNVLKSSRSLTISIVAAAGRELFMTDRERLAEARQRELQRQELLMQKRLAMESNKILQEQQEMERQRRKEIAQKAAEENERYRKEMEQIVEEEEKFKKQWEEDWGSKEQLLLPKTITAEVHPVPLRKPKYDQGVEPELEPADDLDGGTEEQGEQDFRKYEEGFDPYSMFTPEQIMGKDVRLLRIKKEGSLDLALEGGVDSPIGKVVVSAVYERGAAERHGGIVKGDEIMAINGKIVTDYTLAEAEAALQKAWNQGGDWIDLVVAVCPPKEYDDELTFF
B2: Regulator of G-protein signaling 20 (Homo sapiens), O76081 (parent)
chain: MPQLSQDNQECLQKHFSRPSIWTQFLPLFRAQRYNTDIHQITENEGDLRAVPDIKSFPPAQLPDSPAAPKLFGLLSSPLSSLARFFSHLLRRPPPEAPRRRLDFSPLLPALPAARLSRGHEELPGRLSLLLGAALALPGRPSGGRPLRPPHPVAKPREEDATAGQSSPMPQMGSERMEMRKRQMPAAQDTPGAAPGQPGAGSRGSNACCFCWCCCCSCSCLTVRNQEDQRPTIASHELRADLPTWEESPAPTLEEVNAWAQSFDKLMVTPAGRNAFREFLRTEFSEENMLFWMACEELKKEANKNIIEEKARIIYEDYISILSPKEVSLDSRVREVINRNMVEPSQHIFDDAQLQIYTLMHRDSYPRFMNSAVYKDLLQSLSEKSIEA
partner: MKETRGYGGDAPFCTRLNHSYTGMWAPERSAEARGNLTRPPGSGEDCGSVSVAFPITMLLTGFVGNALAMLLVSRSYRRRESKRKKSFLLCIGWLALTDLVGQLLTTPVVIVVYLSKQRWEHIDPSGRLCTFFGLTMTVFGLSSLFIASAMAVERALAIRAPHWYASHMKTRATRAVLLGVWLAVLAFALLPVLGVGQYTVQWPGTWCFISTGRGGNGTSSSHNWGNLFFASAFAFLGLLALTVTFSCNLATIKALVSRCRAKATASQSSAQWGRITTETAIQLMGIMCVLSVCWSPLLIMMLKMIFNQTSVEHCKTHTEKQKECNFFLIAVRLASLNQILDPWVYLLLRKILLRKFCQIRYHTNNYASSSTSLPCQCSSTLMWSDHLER
B3: Tuftelin-interacting protein 11 (Homo sapiens), Q9UBB9 (parent)
chain: MSLSHLYRDGEGRIDDDDDERENFEITDWDLQNEFNPNRQRHWQTKEEATYGVWAERDSDDERPSFGGKRARDYSAPVNFISAGLKKGAAEEAELEDSDDEEKPVKQDDFPKDFGPRKLKTGGNFKPSQKGFAGGTKSFMDFGSWERHTKGIGQKLLQKMGYVPGRGLGKNAQGIINPIEAKQRKGKGAVGAYGSERTTQSMQDFPVVDSEEEAEEEFQKELSQWRKDPSGSKKKPKYSYKTVEELKAKGRISKKLTAPQKELSQVKVIDMTGREQKVYYSYSQISHKHNVPDDGLPLQSQQLPQSGKEAKAPGFALPELEHNLQLLIDLTEQEIIQNDRQLQYERDMVVNLFHELEKMTEVLDHEERVISNLSKVLEMVEECERRMQPDCSNPLTLDECARIFETLQDKYYEEYRMSDRVDLAVAIVYPLMKEYFKEWDPLKDCTYGTEIISKWKSLLENDQLLSHGGQDLSADAFHRLIWEVWMPFVRNIVTQWQPRNCDPMVDFLDSWVHIIPVWILDNILDQLIFPKLQKEVENWNPLTDTVPIHSWIHPWLPLMQARLEPLYSPIRSKLSSALQKWHPSDSSAKLILQPWKDVFTPGSWEAFMVKNIVPKLGMCLGELVINPHQQHMDAFYWVIDWEGMISVSSLVGLLEKHFFPKWLQVLCSWLSNSPNYEEITKWYLGWKSMFSDQVLAHPSVKDKFNEALDIMNRAVSSNVGAYMQPGARENIAYLTHTERRKDFQYEAMQERREAENMAQRGIGVAASSVPMNFKDLIETKAEEHNIVFMPVIGKRHEGKQLYTFGRIVIYIDRGVVFVQGEKTWVPTSLQSLIDMAK
partner: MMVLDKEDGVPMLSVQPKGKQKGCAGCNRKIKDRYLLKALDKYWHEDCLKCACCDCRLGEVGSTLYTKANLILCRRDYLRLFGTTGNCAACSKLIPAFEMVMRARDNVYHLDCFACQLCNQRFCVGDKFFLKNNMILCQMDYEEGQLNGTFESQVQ
B4: STAM-binding protein (Homo sapiens), O95630 (parent)
chain: MSDHGDVSLPPEDRVRALSQLGSAVEVNEDIPPRRYFRSGVEIIRMASIYSEEGNIEHAFILYNKYITLFIEKLPKHRDYKSAVIPEKKDTVKKLKEIAFPKAEELKAELLKRYTKEYTEYNEEKKKEAEELARNMAIQQELEKEKQRVAQQKQQQLEQEQFHAFEEMIRNQELEKERLKIVQEFGKVDPGLGGPLVPDLEKPSLDVFPTLTVSSIQPSDCHTTVRPAKPPVVDRSLKPGALSNSESIPTIDGLRHVVVPGRLCPQFLQLASANTARGVETCGILCGKLMRNEFTITHVLIPKQSAGSDYCNTENEEELFLIQDQQGLITLGWIHTHPTQTAFLSSVDLHTHCSYQMMLPESVAIVCSPKFQETGFFKLTDHGLEEISSCRQKGFHPHSKDPPLFCSCSHVTVVDRAVTITDLR
partner: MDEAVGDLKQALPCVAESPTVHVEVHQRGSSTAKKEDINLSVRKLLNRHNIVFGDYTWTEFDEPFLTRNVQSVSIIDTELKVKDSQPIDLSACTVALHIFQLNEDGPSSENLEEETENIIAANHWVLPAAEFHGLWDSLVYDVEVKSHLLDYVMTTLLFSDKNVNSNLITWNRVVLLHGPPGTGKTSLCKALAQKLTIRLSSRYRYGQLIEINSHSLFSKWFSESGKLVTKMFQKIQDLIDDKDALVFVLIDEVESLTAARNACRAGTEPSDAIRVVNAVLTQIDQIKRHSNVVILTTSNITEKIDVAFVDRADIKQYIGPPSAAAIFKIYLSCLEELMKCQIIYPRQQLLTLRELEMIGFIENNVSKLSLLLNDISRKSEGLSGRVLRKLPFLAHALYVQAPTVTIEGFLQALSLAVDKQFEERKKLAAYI
B5: Pleckstrin homology domain-containing family G member 6 (Homo sapiens), Q3KR16 (parent)
chain: MKAFGPPHEGPLQGLVASRIETYGGRHRASAQSTAGRLYPRGYPVLDPSRRRLQQYVPFARGSGQARGLSPMRLRDPEPEKRHGGHVGAGLLHSPKLKELTKAHELEVRLHTFSMFGMPRLPPEDRRHWEIGEGGDSGLTIEKSWRELVPGHKEMSQELCHQQEALWELLTTELIYVRKLKIMTDLLAAGLLNLQRVGLLMEVSAETLFGNVPSLIRTHRSFWDEVLGPTLEETRASGQPLDPIGLQSGFLTFGQRFHPYVQYCLRVKQTMAYAREQQETNPLFHAFVQWCEKHKRSGRQMLCDLLIKPHQRITKYPLLLHAVLKRSPEARAQEALNAMIEAVESFLRHINGQVRQGEEQESLAAAAQRIGPYEVLEPPSDEVEKNLRPFSTLDLTSPMLGVASEHTRQLLLEGPVRVKEGREGKLDVYLFLFSDVLLVTKPQRKADKAKVIRPPLMLEKLVCQPLRDPNSFLLIHLTEFQCVSSALLVHCPSPTDRAQWLEKTQQAQAALQKLKAEEYVQQKRELLTLYRDQDRESPSTRPSTPSLEGSQSSAEGRTPEFSTIIPHLVVTEDTDEDAPLVPDDTSDSGYGTLIPGTPTGSRSPLSRLRQRALRRDPRLTFSTLELRDIPLRPHPPDPQAPQRRSAPELPEGILKGGSLPQEDPPTWSEEEDGASERGNVVVETLHRARLRGQLPSSPTHADSAGESPWESSGEEEEEGPLFLKAGHTSLRPMRAEDMLREIREELASQRIEGAEEPRDSRPRKLTRAQLQRMRGPHIIQLDTPLSASEV
partner: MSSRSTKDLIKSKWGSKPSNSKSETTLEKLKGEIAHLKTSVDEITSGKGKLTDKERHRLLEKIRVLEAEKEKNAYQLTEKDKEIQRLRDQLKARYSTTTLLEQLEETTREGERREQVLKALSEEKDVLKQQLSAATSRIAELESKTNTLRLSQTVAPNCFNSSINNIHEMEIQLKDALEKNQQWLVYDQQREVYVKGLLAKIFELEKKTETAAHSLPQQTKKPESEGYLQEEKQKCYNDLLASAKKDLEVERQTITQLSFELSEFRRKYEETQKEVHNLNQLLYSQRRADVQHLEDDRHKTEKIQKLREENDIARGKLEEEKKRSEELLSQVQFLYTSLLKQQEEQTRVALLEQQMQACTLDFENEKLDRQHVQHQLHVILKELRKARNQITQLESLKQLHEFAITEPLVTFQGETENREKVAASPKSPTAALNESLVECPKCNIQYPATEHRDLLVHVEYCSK

Variants of: B1
Conditions: with ush1c_human USH1C

Variant	effect of a mutation on the interaction
L420V	with no effect
L48P	with no effect

Variants of: B2
Conditions: with pe2r3_human PTGER3, P43115

Variant	effect of a mutation on the interaction
H347Y	with no effect

Variants of: B3
Conditions: with rbtn1_human LMO1, P25800

Variant	effect of a mutation on the interaction
R8Q	with no effect
S688L	with no effect

Variants of: B4
Conditions: with pch2_human TRIP13, Q15645

Variant	effect of a mutation on the interaction
Q155H	disrupting interaction strength
R255H	with no effect

Variants of: B5
Conditions: with cep55_human CEP55, Q53EZ4

Variant	effect of a mutation on the interaction
R763Q	with no effect
P542S	with no effect
R627W	with no effect

Source: IntAct's records for PubMed 31515488
